# Measured values as given in PMC8976148, “Long-range structural preformation in yes-associated protein precedes encounter complex formation with TEAD” (iScience, 2022).
# Biological target: T1, Biotinylated N-Avitagged-TEAD4^217-434 (UniProt Q15561 217-434, biotin (biotinylated Avitag))
# T1 construct: TEAD4, residues 217-434; not shown: Avitag, N-terminal, kept
# Assay: FRET or BRET; TR-FRET competition: biotinylated N-Avitagged TEAD4 217-434 (1 nM) on LANCE Eu-W1024 streptavidin (0.5 nM), Cy5-labelled YAP as tracer, serial dilutions of the YAP proteins; 50 mM HEPES pH 7.4, 100 mM KCl, 0.05% Tween-20, 0.25 mM TCEP, 0.05% BSA, 2% DMSO; 1 h at room temperature
# Settings: both partners purified
# T1 sequence (Q15561 217-434): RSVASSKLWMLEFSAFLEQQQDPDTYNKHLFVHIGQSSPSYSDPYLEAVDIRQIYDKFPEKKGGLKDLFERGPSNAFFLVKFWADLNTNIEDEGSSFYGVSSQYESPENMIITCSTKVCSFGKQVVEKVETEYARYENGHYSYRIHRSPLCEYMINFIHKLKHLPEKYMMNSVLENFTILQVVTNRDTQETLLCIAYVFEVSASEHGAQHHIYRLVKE
row,Binder,binding result
1,"YAP^50-171 (domain or fragment, UniProt P46937 50-171, looked up, YAP (Yes-associated protein), residues 50-171; 15N-labelled in the intermolecular PRE control; also called YAP^wt; Yes-associated protein; source: E. coli Tuner(DE3), purified (HisTrap FF, 3C protease cleavage, heating to 90°C, size exclusion); not shown: His6, N-terminal, cleaved) AGHQIVHVRGDSETDLEALFNAVMNPKTANVPQTVPMRLRKLPDSFFKPPEPKSHSRQASTDAGTAGALTPQHVRAHSSPASLQLGAVSPGTLTPTGVVSGPAATPTAQHLRQSSFEIPDDV",binds
2,"YAP^50-171 V80C (domain or fragment, UniProt P46937 50-171, looked up, YAP (Yes-associated protein), residues 50-171; source: E. coli Tuner(DE3), purified (HisTrap FF, 3C protease cleavage, heating to 90°C, size exclusion; buffers with 1 mM DTT); not shown: His6, N-terminal, cleaved) AGHQIVHVRGDSETDLEALFNAVMNPKTANCPQTVPMRLRKLPDSFFKPPEPKSHSRQASTDAGTAGALTPQHVRAHSSPASLQLGAVSPGTLTPTGVVSGPAATPTAQHLRQSSFEIPDDV",binds
3,"YAP^50-171 D60C (domain or fragment, UniProt P46937 50-171, looked up, YAP (Yes-associated protein), residues 50-171; source: E. coli Tuner(DE3), purified (HisTrap FF, 3C protease cleavage, heating to 90°C, size exclusion; buffers with 1 mM DTT); not shown: His6, N-terminal, cleaved) AGHQIVHVRGCSETDLEALFNAVMNPKTANVPQTVPMRLRKLPDSFFKPPEPKSHSRQASTDAGTAGALTPQHVRAHSSPASLQLGAVSPGTLTPTGVVSGPAATPTAQHLRQSSFEIPDDV",binds
4,"YAP^50-171 S103C (domain or fragment, UniProt P46937 50-171, looked up, YAP (Yes-associated protein), residues 50-171; source: E. coli Tuner(DE3), purified (HisTrap FF, 3C protease cleavage, heating to 90°C, size exclusion; buffers with 1 mM DTT); not shown: His6, N-terminal, cleaved) AGHQIVHVRGDSETDLEALFNAVMNPKTANVPQTVPMRLRKLPDSFFKPPEPKCHSRQASTDAGTAGALTPQHVRAHSSPASLQLGAVSPGTLTPTGVVSGPAATPTAQHLRQSSFEIPDDV",binds
5,"YAP^50-171 S138C (domain or fragment, UniProt P46937 50-171, looked up, YAP (Yes-associated protein), residues 50-171; source: E. coli Tuner(DE3), purified (HisTrap FF, 3C protease cleavage, heating to 90°C, size exclusion; buffers with 1 mM DTT); not shown: His6, N-terminal, cleaved) AGHQIVHVRGDSETDLEALFNAVMNPKTANVPQTVPMRLRKLPDSFFKPPEPKSHSRQASTDAGTAGALTPQHVRAHSSPASLQLGAVCPGTLTPTGVVSGPAATPTAQHLRQSSFEIPDDV",binds
6,"YAP^50-171 T119C (domain or fragment, UniProt P46937 50-171, looked up, YAP (Yes-associated protein), residues 50-171; source: E. coli Tuner(DE3), purified (HisTrap FF, 3C protease cleavage, heating to 90°C, size exclusion; buffers with 1 mM DTT); not shown: His6, N-terminal, cleaved) AGHQIVHVRGDSETDLEALFNAVMNPKTANVPQTVPMRLRKLPDSFFKPPEPKSHSRQASTDAGTAGALCPQHVRAHSSPASLQLGAVSPGTLTPTGVVSGPAATPTAQHLRQSSFEIPDDV",binds

# Other lines, results leading:
row,binding result,Binder
1,binds,"YAP^50-171 S164C (domain or fragment, UniProt P46937 50-171, looked up, YAP (Yes-associated protein), residues 50-171; source: E. coli Tuner(DE3), purified (HisTrap FF, 3C protease cleavage, heating to 90°C, size exclusion; buffers with 1 mM DTT); not shown: His6, N-terminal, cleaved) AGHQIVHVRGDSETDLEALFNAVMNPKTANVPQTVPMRLRKLPDSFFKPPEPKSHSRQASTDAGTAGALTPQHVRAHSSPASLQLGAVSPGTLTPTGVVSGPAATPTAQHLRQSCFEIPDDV"
2,binds,"YAP^50-171 A71C (domain or fragment, UniProt P46937 50-171, looked up, YAP (Yes-associated protein), residues 50-171; source: E. coli Tuner(DE3), purified (HisTrap FF, 3C protease cleavage, heating to 90°C, size exclusion; buffers with 1 mM DTT); not shown: His6, N-terminal, cleaved) AGHQIVHVRGDSETDLEALFNCVMNPKTANVPQTVPMRLRKLPDSFFKPPEPKSHSRQASTDAGTAGALTPQHVRAHSSPASLQLGAVSPGTLTPTGVVSGPAATPTAQHLRQSSFEIPDDV"
3,binds,"YAP^50-171 Q158C (domain or fragment, UniProt P46937 50-171, looked up, YAP (Yes-associated protein), residues 50-171; source: E. coli Tuner(DE3), purified (HisTrap FF, 3C protease cleavage, heating to 90°C, size exclusion; buffers with 1 mM DTT); not shown: His6, N-terminal, cleaved) AGHQIVHVRGDSETDLEALFNAVMNPKTANVPQTVPMRLRKLPDSFFKPPEPKSHSRQASTDAGTAGALTPQHVRAHSSPASLQLGAVSPGTLTPTGVVSGPAATPTACHLRQSSFEIPDDV"
4,binds,"YAP^50-171 K90C (domain or fragment, UniProt P46937 50-171, looked up, YAP (Yes-associated protein), residues 50-171; source: E. coli Tuner(DE3), purified (HisTrap FF, 3C protease cleavage, heating to 90°C, size exclusion; buffers with 1 mM DTT); not shown: His6, N-terminal, cleaved) AGHQIVHVRGDSETDLEALFNAVMNPKTANVPQTVPMRLRCLPDSFFKPPEPKSHSRQASTDAGTAGALTPQHVRAHSSPASLQLGAVSPGTLTPTGVVSGPAATPTAQHLRQSSFEIPDDV"
5,binds,"YAP^50-171 S127C (domain or fragment, UniProt P46937 50-171, looked up, YAP (Yes-associated protein), residues 50-171; source: E. coli Tuner(DE3), purified (HisTrap FF, 3C protease cleavage, heating to 90°C, size exclusion; buffers with 1 mM DTT); not shown: His6, N-terminal, cleaved) AGHQIVHVRGDSETDLEALFNAVMNPKTANVPQTVPMRLRKLPDSFFKPPEPKSHSRQASTDAGTAGALTPQHVRAHCSPASLQLGAVSPGTLTPTGVVSGPAATPTAQHLRQSSFEIPDDV"
6,binds,"YAP^50-171 S149C (domain or fragment, UniProt P46937 50-171, looked up, YAP (Yes-associated protein), residues 50-171; source: E. coli Tuner(DE3), purified (HisTrap FF, 3C protease cleavage, heating to 90°C, size exclusion; buffers with 1 mM DTT); not shown: His6, N-terminal, cleaved) AGHQIVHVRGDSETDLEALFNAVMNPKTANVPQTVPMRLRKLPDSFFKPPEPKSHSRQASTDAGTAGALTPQHVRAHSSPASLQLGAVSPGTLTPTGVVCGPAATPTAQHLRQSSFEIPDDV"
